Test results reported in patent US20250339531A1, “DUX4 POLYPEPTIDES AND NUCLEIC ACIDS FOR TREATING INFLAMMATORY AND AUTOIMMUNE CONDITIONS” (Fred Hutchinson Cancer Center, priority 2021, published 2025).

System: proteins that co-immunoprecipitated with DUX4-CTD constructs expressed in MB135 myoblasts
Assay: LC-MS of proteins co-immunoprecipitated with DUX4-CTD (Table 1) and western validation
Type: binding, human
Parameters: key to 4. mL1dL2 + Dox + IFNG / 4. + IFNG mix / 4. longCTD + Dox + IFNG / 3. + IFNg + Dox longCTD / 3. + Dox longCTD / 3. + IFNG longCTD: peptide-spectrum matches (PSMs) per protein
Conditions: kind of count not given; for 4. + IFNG mix: LC-MS value per protein co-immunoprecipitated from MB135 myoblasts, + IFNG mix sample (no Dox); for 4. mL1dL2 + Dox + IFNG: LC-MS value per protein co-immunoprecipitated with DUX4-CTD construct mL1dL2 in MB135 myoblasts
Procedure, shortened: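 FLAG-tagged DUX4-CTD expressed in doxycycline-induced MB135 myoblasts, some also IFNG-treated; nuclear lysates in pH 7.4 NP-40 IP buffer were pre-cleared, then anti-FLAG immunoprecipitated 3 h at 4 °C. For LC-MS, FLAG-peptide elution, in-gel trypsin digest, Orbitrap analysis; proteins with ≥2 PSMs in both experiments categorised and ranked by total PSMs.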

| Molecule | 4. + IFNG mix | 4. mL1dL2 + Dox + IFNG |
| --- | --- | --- |
| SLC25A3 (protein) AVEEQYSCDYGSGRFFILCGLGGIISCGTTHTALVPLDLVKCRMQVDPQKYKGIFNGFSVTLKEDGVRGLAKGWAPTFLGYSMQGLCKFGFYEVFKVLYSNMLGEENTYLWRTSLYLAASASAEFFADIALAPMEAAKVRIQTQPGYANTLRDAAPKMYKEEGLKAFYKGVAPLWMRQIPYTMMKFACFERTVEALYKFVVPKPRSECSKPEQLVVTFVAGYIAGVFCAIVSHPADSVVSVLNKEKGSSASLVLKRLGFKGVWKGLFARIIMIGTLTALQWFIYDSVKVYFRLPRPPPPEMPESLKKKLGLTQ | 3 | 2 |
| PLOD1 (protein) KGDAKPEDNLLVLTVATKETEGFRRFKRSAQFFNYKIQALGLGEDWNVEKGTSAGGGQKVRLLKKALEKHADKEDLVILFADSYDVLFASGPRELLKKFRQARSQVVFSAEELIYPDRRLETKYPVVSDGKRFLGSGGFIGYAPNLSKLVAEWEGQDSDSDQLFYTKIFLDPEKREQINITLDHRCRIFQNLDGALDEVVLKFEMGHVRARNLAYDTLPVLIHGNGPTKLQLNYLGNYIPRFWTFETGCTVCDEGLRSLKGIGDEALPTVLVGVFIEQPTPFVSLFFQRLLRLHYPQKHMRLFIHNHEQHHKAQVEEFLAQHGSEYQSVKLVGPEVRMANADARNMGADLCRQDRSCTYYFSVDADVALTEPNSLRLLIQQNKNVIAPLMTRHGRLWSNFWGALSADGYYARSEDYVDIVQGRRVGVWNVPYISNIYLIKGSALRGELQSSDLFHHSKLDPDMAFCANIRQQDVFMFLTNRHTLGHLLSLDSYRTTHLHNDLWEVFSNPEDWKEKYIHQNYTKALAGKLVETPCPDVYWFPIFTEVACDELVEEMEHFGQWSLGNNKDNRIQGGYENVPTIDIHMNQIGFEREWHKFLLEYIAPMTEKLYPGYYTRAQFDLAFVVRYKPDEQPSLMPHHDASTFTINIALNRVGVDYEGGGCRFLRYNCSIRAPRKGWTLMHPGRLTHYHEGLPTTRGTRYIAVSFVDP |  | 2 |
| SLC3A2 (protein) SQDTEVDMKEVELNELEPEKQPMNAASGAAMSLAGAEKNGLVKIKVAEDEAEAAAAAKFTGLSKEELLKVAGSPGWVRTRWALLLLFWLGWLGMLAGAVVIIVRAPRCRELPAQKWWHTGALYRIGDLQAFQGHGAGNLAGLKGRLDYLSSLKVKGLVLGPIHKNQKDDVAQTDLLQIDPNFGSKEDFDSLLQSAKKKSIRVILDLTPNYRGENSWFSTQVDTVATKVKDALEFWLQAGVDGFQVRDIENLKDASSFLAEWQNITKGFSEDRLLIAGTNSSDLQQILSLLESNKDLLLTSSYLSDSGSTGEHTKSLVTQYLNATGNRWCSWSLSQARLLTSFLPAQLLRLYQLMLFTLPGTPVFSYGDEIGLDAAALPGQPMEAPVMLWDESSFPDIPGAVSANMTVKGQSEDPGSLLSLFRRLSDQRSKERSLLHGDFHAFSAGPGLFSYIRHWDQNERFLVVLNFGDVGLSAGLQASDLPASASLPAKADLLLSTQPGREEGSPLELERLKLEPHEGLLLRFPYAA | 2 | 4 |
